Laboratory results: the supplement of paper PMC9112550, “Optimization of the antimicrobial peptide Bac7 by deep mutational scanning” (BMC Biology, 2022)

The sequences below were run on Escherichia coli TOP10 (assay: shrunken log2 fold change of peptide-encoding DNA abundance (4.5 h post-induction vs induction); higher = less antimicrobial activity (less host growth inhibition)). Conditions: time post-induction: 4.5 h; library: site-saturation at positions 5, 18, 19, 20.
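Further: peptides expressed intracellularly from a pBAD plasmid library in pooled LB shake-flask culture, induced with 0.3% L-arabinose, DNA abundance read by NGS, three biological replicates, DESeq2 with apeglm shrinkage.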

Sequence	shrunken log2 fold change
RRIRCRPPRLPRPRPRPHMKPRP	-1.1
RRIRCRPPRLPRPRPRPHMRPRP	0.0898
RRIRCRPPRLPRPRPRPHNPPRP	-0.377
RRIRCRPPRLPRPRPRPHNWPRP	-0.00871
RRIRCRPPRLPRPRPRPHQEPRP	-0.0176
RRIRCRPPRLPRPRPRPHQMPRP	-0.691
RRIRCRPPRLPRPRPRPHSSPRP	-0.823
RRIRCRPPRLPRPRPRPHTIPRP	-0.38
RRIRCRPPRLPRPRPRPHYPPRP	-0.902
RRIRCRPPRLPRPRPRPICNPRP	-0.579
RRIRCRPPRLPRPRPRPIEGPRP	0.119
RRIRCRPPRLPRPRPRPIEMPRP	-0.0735
RRIRCRPPRLPRPRPRPIFSPRP	-0.0342
RRIRCRPPRLPRPRPRPIFYPRP	-0.32
RRIRCRPPRLPRPRPRPIIMPRP	-0.888
RRIRCRPPRLPRPRPRPIIWPRP	-0.178
RRIRCRPPRLPRPRPRPIMYPRP	-0.916
RRIRCRPPRLPRPRPRPINAPRP	0.695
RRIRCRPPRLPRPRPRPINQPRP	-0.485
RRIRCRPPRLPRPRPRPINSPRP	-0.389
RRIRCRPPRLPRPRPRPIQEPRP	0.0221
RRIRCRPPRLPRPRPRPIQHPRP	-1.21
RRIRCRPPRLPRPRPRPIQQPRP	-0.0847
RRIRCRPPRLPRPRPRPIRVPRP	0.161
RRIRCRPPRLPRPRPRPITEPRP	-0.206

Sequence	shrunken log2 fold change
RRIRCRPPRLPRPRPRPITNPRP	-0.449
RRIRCRPPRLPRPRPRPIYIPRP	-0.43
RRIRCRPPRLPRPRPRPIYRPRP	-0.318
RRIRCRPPRLPRPRPRPKADPRP	-0.052
RRIRCRPPRLPRPRPRPKCHPRP	0.205
RRIRCRPPRLPRPRPRPKCYPRP	-0.353
RRIRCRPPRLPRPRPRPKDDPRP	0.146
RRIRCRPPRLPRPRPRPKDYPRP	-0.644
RRIRCRPPRLPRPRPRPKEHPRP	-0.201
RRIRCRPPRLPRPRPRPKESPRP	0.0858
RRIRCRPPRLPRPRPRPKFLPRP	-0.258
RRIRCRPPRLPRPRPRPKFWPRP	0.449
RRIRCRPPRLPRPRPRPKHDPRP	-0.0567
RRIRCRPPRLPRPRPRPKHVPRP	-0.155
RRIRCRPPRLPRPRPRPKLCPRP	0.0418
RRIRCRPPRLPRPRPRPKLIPRP	-0.0459
RRIRCRPPRLPRPRPRPKNIPRP	-0.607
RRIRCRPPRLPRPRPRPKNTPRP	-0.339
RRIRCRPPRLPRPRPRPKPCPRP	0.084
RRIRCRPPRLPRPRPRPKPTPRP	0.128
RRIRCRPPRLPRPRPRPKPVPRP	0.179
RRIRCRPPRLPRPRPRPKRVPRP	0.267
RRIRCRPPRLPRPRPRPKRYPRP	-0.0053
RRIRCRPPRLPRPRPRPKSTPRP	-0.137
RRIRCRPPRLPRPRPRPKVSPRP	0.0213

Sequence	shrunken log2 fold change
RRIRCRPPRLPRPRPRPLAKPRP	1.69
RRIRCRPPRLPRPRPRPLAMPRP	0.062
RRIRCRPPRLPRPRPRPLCHPRP	-0.213
RRIRCRPPRLPRPRPRPLDPPRP	-0.122
RRIRCRPPRLPRPRPRPLFCPRP	-0.442
RRIRCRPPRLPRPRPRPLHQPRP	-0.168
RRIRCRPPRLPRPRPRPLHRPRP	0.06
RRIRCRPPRLPRPRPRPLLCPRP	-0.163
RRIRCRPPRLPRPRPRPLLQPRP	0.167
RRIRCRPPRLPRPRPRPLQEPRP	0.299
RRIRCRPPRLPRPRPRPLQSPRP	0.113
RRIRCRPPRLPRPRPRPLQYPRP	-0.0878
RRIRCRPPRLPRPRPRPLRFPRP	0.0668
RRIRCRPPRLPRPRPRPLRSPRP	0.482
RRIRCRPPRLPRPRPRPLSAPRP	0.00383
RRIRCRPPRLPRPRPRPLSLPRP	-0.305
RRIRCRPPRLPRPRPRPLSVPRP	-0.481
RRIRCRPPRLPRPRPRPLVGPRP	3.69
RRIRCRPPRLPRPRPRPLVRPRP	0.0749
RRIRCRPPRLPRPRPRPLWYPRP	-0.307
RRIRCRPPRLPRPRPRPLYGPRP	-0.914
RRIRCRPPRLPRPRPRPLYRPRP	-1.14
RRIRCRPPRLPRPRPRPMAGPRP	-0.0712
RRIRCRPPRLPRPRPRPMCCPRP	-0.038
RRIRCRPPRLPRPRPRPMCSPRP	-0.218

Sequence	shrunken log2 fold change
RRIRCRPPRLPRPRPRPMFDPRP	-0.246
RRIRCRPPRLPRPRPRPMFEPRP	-0.212
RRIRCRPPRLPRPRPRPMFNPRP	-0.848
RRIRCRPPRLPRPRPRPMGQPRP	0.00321
RRIRCRPPRLPRPRPRPMHVPRP	0.0371
RRIRCRPPRLPRPRPRPMIIPRP	-0.18
RRIRCRPPRLPRPRPRPMIMPRP	-0.854
RRIRCRPPRLPRPRPRPMKGPRP	0.0113
RRIRCRPPRLPRPRPRPMLMPRP	0.0436
RRIRCRPPRLPRPRPRPMMGPRP	0.0355
RRIRCRPPRLPRPRPRPMMRPRP	0.0843
RRIRCRPPRLPRPRPRPMNNPRP	-0.537
RRIRCRPPRLPRPRPRPMPAPRP	0.849
RRIRCRPPRLPRPRPRPMPRPRP	0.0702
RRIRCRPPRLPRPRPRPMPYPRP	-0.189
RRIRCRPPRLPRPRPRPMRPPRP	0.214
RRIRCRPPRLPRPRPRPMSLPRP	-0.163
RRIRCRPPRLPRPRPRPMSMPRP	-0.212
RRIRCRPPRLPRPRPRPMTEPRP	-0.123
RRIRCRPPRLPRPRPRPMWYPRP	-0.414
RRIRCRPPRLPRPRPRPMYPPRP	-0.375
RRIRCRPPRLPRPRPRPNAHPRP	-0.221
RRIRCRPPRLPRPRPRPNAPPRP	0.367
RRIRCRPPRLPRPRPRPNASPRP	0.0178
RRIRCRPPRLPRPRPRPNDKPRP	-0.46

Sequence	shrunken log2 fold change
RRIRCRPPRLPRPRPRPNDWPRP	-0.166
RRIRCRPPRLPRPRPRPNEYPRP	-0.587
RRIRCRPPRLPRPRPRPNGHPRP	-0.023
RRIRCRPPRLPRPRPRPNGNPRP	-0.288
RRIRCRPPRLPRPRPRPNHPPRP	-0.153
RRIRCRPPRLPRPRPRPNISPRP	0.039
RRIRCRPPRLPRPRPRPNNMPRP	-0.745
RRIRCRPPRLPRPRPRPNNYPRP	-0.81
RRIRCRPPRLPRPRPRPNPPPRP	0.557
RRIRCRPPRLPRPRPRPNQIPRP	-0.367
RRIRCRPPRLPRPRPRPNQVPRP	0.017
RRIRCRPPRLPRPRPRPNRQPRP	-0.216
RRIRCRPPRLPRPRPRPNRYPRP	-0.137
RRIRCRPPRLPRPRPRPNSFPRP	-0.58
RRIRCRPPRLPRPRPRPNSNPRP	-0.698
RRIRCRPPRLPRPRPRPNSSPRP	-0.366
RRIRCRPPRLPRPRPRPNVCPRP	-0.00167
RRIRCRPPRLPRPRPRPNYLPRP	-0.797
RRIRCRPPRLPRPRPRPPAPPRP	1.11
RRIRCRPPRLPRPRPRPPCCPRP	0.021
RRIRCRPPRLPRPRPRPPCPPRP	0.487
RRIRCRPPRLPRPRPRPPDSPRP	-0.0091
RRIRCRPPRLPRPRPRPPEPPRP	0.457
RRIRCRPPRLPRPRPRPPFIPRP	-0.154
RRIRCRPPRLPRPRPRPPHTPRP	0.824

Sequence	shrunken log2 fold change
RRIRCRPPRLPRPRPRPPLFPRP	0.934
RRIRCRPPRLPRPRPRPPNQPRP	0.107
RRIRCRPPRLPRPRPRPPPNPRP	1.27
RRIRCRPPRLPRPRPRPPRLPRP	0.873
RRIRCRPPRLPRPRPRPPTCPRP	0.183
RRIRCRPPRLPRPRPRPPTMPRP	0.143
RRIRCRPPRLPRPRPRPPVMPRP	0.298
RRIRCRPPRLPRPRPRPPVQPRP	0.652
RRIRCRPPRLPRPRPRPPWWPRP	2.01
RRIRCRPPRLPRPRPRPPYGPRP	-0.266
RRIRCRPPRLPRPRPRPPYIPRP	-0.305
RRIRCRPPRLPRPRPRPQAGPRP	0.109
RRIRCRPPRLPRPRPRPQCRPRP	-0.421
RRIRCRPPRLPRPRPRPQDPPRP	-0.0952
RRIRCRPPRLPRPRPRPQDSPRP	-0.0482
RRIRCRPPRLPRPRPRPQDTPRP	-0.313
RRIRCRPPRLPRPRPRPQEIPRP	-0.0405
RRIRCRPPRLPRPRPRPQFDPRP	-0.211
RRIRCRPPRLPRPRPRPQFKPRP	-0.562
RRIRCRPPRLPRPRPRPQFPPRP	-0.17
RRIRCRPPRLPRPRPRPQFRPRP	-0.434
RRIRCRPPRLPRPRPRPQGMPRP	0.00583
RRIRCRPPRLPRPRPRPQGVPRP	0.0642
RRIRCRPPRLPRPRPRPQIAPRP	-0.0699
RRIRCRPPRLPRPRPRPQICPRP	0.0827
